Assay results as given in patent publication US20110165679.

Columns and labels:
Assay in all cases: cell_activity
[1] = system: Lig3-4+ (engineered meganuclease variant); settings: 1 of 353 clones mutated; BMS maize cells
[2] = system: Lig3-4 (engineered I-CreI-type single-chain meganuclease); settings: 3 of 637 clones mutated; BMS maize cells
[3] = system: Lig3-4++ (engineered meganuclease variant); settings: 56 of 237 clones mutated; BMS maize cells
I-CreI = target: T1, I-CreI (UniProt P05725); settings: BMS maize cells
T1 sequence: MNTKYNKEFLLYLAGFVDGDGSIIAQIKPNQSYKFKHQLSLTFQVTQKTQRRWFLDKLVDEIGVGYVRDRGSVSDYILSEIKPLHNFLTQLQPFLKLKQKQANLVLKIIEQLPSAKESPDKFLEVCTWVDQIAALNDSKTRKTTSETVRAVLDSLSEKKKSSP

[4] = target: T2, I-SceI (maize codon-modified moI-SceI) (UniProt P03882); settings: BMS maize cells
T2 sequence: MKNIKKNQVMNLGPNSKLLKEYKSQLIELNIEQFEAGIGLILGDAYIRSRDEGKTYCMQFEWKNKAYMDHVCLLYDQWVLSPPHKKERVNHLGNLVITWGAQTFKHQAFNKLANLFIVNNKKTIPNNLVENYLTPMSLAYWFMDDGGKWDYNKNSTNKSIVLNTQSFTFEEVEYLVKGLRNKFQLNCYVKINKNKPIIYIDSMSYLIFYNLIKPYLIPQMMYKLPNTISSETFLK

Q: Which activity (% mutation rate) [1] does the source give for “ATATACCTCACACGTACGCGTA (double strand) [LIG-1 site (near liguleless1)]” here?
A: 0.3

Q: And the activity (% mutation rate) [2]?
A: 0.5

Q: What about the activity (% mutation rate) [3] of the same substance?
A: 24

Q: Double I-CreI site was tested. Which activity (% mutation rate) (I-CreI; 50 of 66 clones mutated) did it give?
A: 76

Q: Double I-SceI site was tested. Which activity (% mutation rate) ([4]; 57 of 63 clones mutated) did it give?
A: 90

Q: With I-CreI site as the substance, how does the activity (% mutation rate) (I-CreI; 318 of 904 clones mutated, 0 of 34 without endonuclease) read?
A: 35

Q: How did the activity (% mutation rate) ([4]; 49 of 58 clones mutated, T-DNA replicon assay, 0 of 34 without endonuclease) turn out when I-SceI site was run?
A: 84
